Measurements: paper PMC4385751

Legend:
[1] = biological target: Commercial CD62L from R&D systems, Inc. (human) (UniProt P14151); test: SPR
[2] = biological target: Recombinant soluble human CD62L N104E mutant (residues 1-194, C-terminal six-histidine tag) (human) (UniProt P14151); test: SPR

Kd [1]: 27 µM
Kd [2]: 44 µM
Substance: type III porcine submaxillary mucin (PSM-III) (natural protein)
